First the molecules themselves.
T1: human LAIR1 extracellular domain (ECD) protein with 6 HIS tag at the C-terminus (human, UniProt Q6GTX8 22-165)
T1 construct: Produced recombinantly in HEK293 cells; the whole entry is named here; also called LAIR1 ECD; LAIR1-ECD
T1 chain: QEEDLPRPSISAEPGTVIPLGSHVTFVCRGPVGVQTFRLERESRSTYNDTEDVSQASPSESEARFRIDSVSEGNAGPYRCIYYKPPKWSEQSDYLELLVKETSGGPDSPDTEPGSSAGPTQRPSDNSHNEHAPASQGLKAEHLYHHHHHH

T2: LAIR1 on LAIR1 reporter cells (human, UniProt Q6GTX8 22-165, limits assumed)
T2 chain: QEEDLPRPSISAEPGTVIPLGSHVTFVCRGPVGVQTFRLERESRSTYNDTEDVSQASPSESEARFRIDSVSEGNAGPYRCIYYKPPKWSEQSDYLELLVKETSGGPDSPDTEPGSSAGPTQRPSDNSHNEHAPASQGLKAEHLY

B1: LA-29 (antibody, V domains shown)
VH: SSSVEESGGGLVQPEGSLTLTCTASGFSFSSRYYMCWVRQAPGKGLEWIACIYNGDGSRYYASWAKGRFTISKTSSTTVTLQMTSLTAADTATYFCVRDRHTAFVDYGDDNLWGPGTLVTVSS
VL: ELDLTQTPASVSEPVGGTVTIKCQASQSIYSNLAWYQQKPGQPPKLLIYRASTLASGVPSRFKGSGAGTEFTLTISDLECADAATYYCQCTYDGISYVPSSFGGGTEVVVK
notes: Rabbit monoclonal IgG; also called mAb LA-29
B2: LA-82 (antibody, V domains shown)
VH: EQSLEESGGDLVKPGASLTLACTASGFSFSDGYYMCWVRQAPGKGLEWIGCIHSSSGSIYYASWAKGRFTISKTSSTMVTLQMSSLTAADTATYFCARDSESYGYNPCELWGPGTLVTISS
VL: ELVMTQTPASVSEAVGGTVTIKCQASQTISNYLAWYQQKPGQRPKLLIYAASSLASGVSSRFRGSRSGTEYTLTITDLECDDAATYYCQCTYYGTTYIGGAFGGGTEVEIK
notes: Rabbit monoclonal IgG; also called mAb LA-82
B3: LA-56 (antibody, V domains shown)
VH: SSSVEESGGRLVTPGTPLTLTCTVSGFSLSAYWVGWVRQAPGKGLEYIGFVDVDIYYASWARGRFTISKTSSTTVDLILTSPTMEDTATYFCVRMSYNAMDLWGPGTLVTISS
VL: ELDLTQTASSVSAAVGDTVTINCQSSESVYKDNFLSWYQQKPGQPPKLLIYRASTLASGVPSRFKGSGSGSQFTLTISDVVCDDAATYYCSGYRNSHDGLPFGGGTEVEIK
notes: Rabbit monoclonal IgG; also called mAb LA-56
B4: LA-145 (antibody, V domains shown)
VH: SSSVEESGGRLVTPGTPLTLTCTVSGFSLSSYVMGWVRQAPGKGLEWIGTISIRSNTYYASWAKGRFTISKTSTTVDLKITSPITEDTATYFCARGAGNVYYSDYYFSLWGPGTLVTISS
VL: ELVMTQPPASVSAAVGGTVTINCQASQNIYSNLAWYQQRPGQPPKLLIYKASTLASGVPSRFKGSGSGTDYTLTITDLECADAATYYCQTYYNMMDDGAAFGGGTEVEIK
notes: Rabbit monoclonal IgG
B5: LA-171 (antibody, V domains shown)
VH: EQSVEESGGRLVTPGGSLTLTCTVSGFSLSSYNMGWVRQAPGKGLEYIGWISLGGNTYYASWVNGRFTISKTSTTVELKISSPTTEDTATYFCARGAGSLYYGDYYFTLWGPGTLVTISS
VL: ELVLTQTPSSVSAAVGGTVTIKCQASQSIYSNLAWYQQKPGQPPKLLIYKASNLASGVPSRFKGSGSGTEYTLTISDLECADAATYYCQNYYGINDYGAAFGGGTEVVVK
notes: Rabbit monoclonal IgG
B6: LA-89 (antibody, V domains shown)
VH: QSVKESGGRLVTPGTPLTLTCTVSGFSLSSNAISWVRQAPGKGLEWIGYIYGDGRTFYASWAKGRFTISKTSTTVDLKMTSLTSEDTATYFCIKSLHLWGPGTLVTISS
VL: ELDMTQTASPVSAAVGGTVTINCQSSQSVYNKNQLFWYQQKPGQPPKLLIYDASTLASGVPSRYKGSGSGTQFTLTISGVQCDDAATYYCLGEYTGNIYTFGEGTEVVVK
notes: Rabbit monoclonal IgG; also called mAb LA-89
B7: LA-141 (antibody, V domains shown)
VH: QSLEESGGRLVKPDESLTLTCTVSGFSLSSNAMSWVRQAPGKGLEWIGYIYGDGRTFYANWAKGRITISRTSTTVDLKMTSLRTEDTATYFCVKSLILWGPGTLVTISS
VL: B6 VL with A8P, Q27H, K32A, F36Y, Y64F, T95S, T100V, V108E, V109I, K110N
notes: Rabbit monoclonal IgG
B8: LA-245 (antibody, V domains shown)
VH: QSLQESRGRLVTPGTPLTLTCTASGFSLSSYHMGWVRQAPGKGLEWIGYIHTNRNTWYANWAKGRFTISKTSSTTVNLRMTSPTTEDTATYFCARGSYGDYNFLFDVWGPGTLVTVSS
VL: ELVMTQTPASVSEPVGGTVTINCQASEDISIYLAWYQQKPGQPPKLLIYDASTLESGVPSRFSGSGSRTQFTLTISDLECADAATYYCQQYSTTDTNNLFGGGTEVEIK
notes: Rabbit monoclonal IgG
B9: LA-6 (antibody, V domains shown)
VH: EQSVEESGGDLVKPEGSLTLTCTASGFSFSSGYYMCWVRQAPGKGLEWIGCIHSSSGNIYYASWAKGRFTISKTSSTTVDLQLTSLTAADTATYFCARDSEVYGWNPNDLWGPGTLVTVSS
VL: ELDMTQTPASVSEPVGGTVTIKCQASQSISSYLAWYQQKPGQRPKLLIYGASNLASGVSSRFKGSRSGTQFTLTITDLECDDAATYYCQCSYYGNSYVGGAFGGGTEVVVK
notes: Rabbit monoclonal IgG; also called mAb LA-6
B10: LA-61 (antibody, V domains shown)
VH: EQLMEESGGRLVTPGTPLTLTCTASGFDVNAYHMGWVRQAPGKGLEWIGYIYSGGTIFYANWAKGRFTLSRTSTTVDLKITSPTTEDTATYFCARGGYDNYNILYDLWGPGTLVTISS
VL: ELDMTQTPASVSEPVGGTVTIKCQASQSISVYLAWYQQKPGQPPKLLIYDASTLTSGVPSRFKGSGSGTEFTLTISDLECADAAAYYCQSYDGTPTAAFGGGTEVVVK
notes: Rabbit monoclonal IgG; also called mAb LA-61
B11: LA-60 (antibody, V domains shown)
VH: EQSLESGGGLVQPEGSLTLTCTASGFSFSNSYYMCWVRQAPGKGLEWIGCIYTGSSSGTYYASWAEGRFTISKTPSTTVTLQMTSLTAADTATYFCSRKLTNFNGAYLDLWGPGTLVTVSS
VL: ELVLTQTPASVEAAVGGTVTIKCQASQSIYSYLAWYQQKPGQPPKVLIYKASTLASGVPSRFKGSGSGTEFTLTISDLECADAATYYCQNNNGGSDNTFGGGTEVVVK
notes: Rabbit monoclonal IgG; also called mAb LA-60
B12: LA-111 (antibody, V domains shown)
VH: EQSVEESGGGLVAPGGSLTLTCTVSGFSLSNYHMGWVRQAPGKGLEWIGYIYTHGTTFYASWAKGRFTISKTSTTVDLKMTRLTTGDTATYFCARGGYADYNILYNLWGPGTLVTISS
VL: ELVLTQTPASVEAAVGGTVTINCQASQSISSYLAWYQQKPGQPPKLLIYDASDLASGVPSRFKGSRSGTEFTFTISDLECADAATYYCQTYDSSTTAAFGGGTEVEIK
notes: Rabbit monoclonal IgG
B13: LA-259-1 (antibody, V domains shown)
VH: QSVKESGGRLVTPGTPLTLTCTASGFSLYKYNIQWVRQAPGKGLEYIGASTYAGYTYYASWAKGRVTISRTSTTVDLKMTSPTTEDTATYFCARHIDGDYSGYALWGPGTLVTISS
VL: ELVLTQTPASVSAAVGGTVTIKCQASQSIGTWFAWYQQKPGQSPKLLIYGPSKLASGVPPRFKGSGSGTEFTLTISDLECADAATYYCQSTYFGVDYLGGTFGGGTEVVVK
notes: Rabbit monoclonal IgG
B14: LA-142-2 (antibody, V domains shown)
VH: B13 VH with Q1A, S2A, I114V
VL: ELVLTQTPASVSAAVGGTVTIKCQASQSIGTWFAWYQQKPGQSPKLLIYGASNLASGVSSRFKGIRSGTEYTLTISDLECADAATYYCQCSDVGNTYGAAFGGGTEVEIN
notes: Rabbit monoclonal IgG
B15: LA-142-1 (antibody, V domains shown)
VH: B13 VH with Q1A, S2A, I114V
VL: B13 VL with V109E, V110I
notes: Rabbit monoclonal IgG
B16: LA-199 (antibody, V domains shown)
VH: EQSVEESGGRLVTPGTPLTLTCTASGFSLSSYAMIWVRQAPGEGLEWIGDIYAGGGATYYASWAKGRFTISKTSTTVDLKITSPTTEDTATYFCARAYGSGYDLWGPGTLVTVSS
VL: ELDLTQTPASVEVAVGGTVTIKCQASQSISSYLSWYQQKPGQPPKLLIYYASTMASGVPSRFSGSGSGTQFTLTISDLECADAATYYCQQGDSRSNVDNIFGGGTEVVVK
notes: Rabbit monoclonal IgG
B17: LA-258-1 (antibody, V domains shown)
VH: QSVKESGGDLVKPEGSLTLTCKASGFSFSNSYYMCWVRQAPGKGLEWIACIYTGSTSGTYYASWVNGRFTISKTPSTTVTLQMTSLTVADTATYFCSRKLTNFNGAYLDLWGPGTLVTISS
VL: ELVLTQTPASVEAAVGGTVTINCQASQSISNLLAWYQQKPGQRPKLLIYRASTLASGVSSRFKGSGSGTEYTLTISGVQCDDAATYYCQQGYTSNNVDNAFGGGTEVEIK
notes: Rabbit monoclonal IgG

Changes are numbered by the printed parent chain.

One assay has as its target T1, human LAIR1 extracellular domain (ECD) …. As to the kind of experiment: ELISA, LAIR1 ECD coated. As for the experimental part:
(§1) The inventors then used a concentration titration (0-10 μg/ml) by ELISA to determine the LAIR1 monoclonal antibody (mAbs) binding to human LAIR1 ECD. […] For FIGS. 2-39, X axis indicates the antibody concentrations and Y-axis is binding signals, measured as OD (450 nm). To perform the ELISA assay, LAIR1 ECD recombinant protein was coated on high absorption 96-well plates. Serial diluted (3-fold) LAIR1 mAb was added to the coated/blocked plates and detected using goat anti-rabbit F(ab′)2 conjugated HRP as secondary antibody. All assays were repeated 3 times and the titration curves were fitted using 4-parameter fitting curve using the GraphPad software for EC₅₀ estimation.
(§2) Serial dilutions of the LAIR1 monoclonal antibodies (IgGs or scFvs fragments), starting from […] and 3-fold titration down for 12 steps, were added to the 96-well plate for binding by incubating 45 minutes at 37° C. with a cover on the assay plate. Then the plates were washed with PBS containing Tween 20 (0.05% concentration) for 3 times and PBS one time. […] Detection was conducted by adding HRP substrate, TMB (ThermoFisher) for 10 minutes, and stopped by adding 50 μl/well of 2N H2504. The plates were read for absorbance at 450 nm using a plate reader (SpectraMax M4, Molecular Devices). Data were collected and graphed using a 4-parameter fitting curve with GrapPad Prism 7 software for EC₅₀ calculation.
On the technique in general: ELISA stands for enzyme-linked immunosorbent assay.
In the case of B1, the EC50 (read off the curve) (as a rule, the midpoint of the concentration-response curve) is around 10 ng/mL.
For the molecule B2, the “EC50 (read off the curve)” value was around 10 ng/mL.
For B3, the half-maximal effective concentration (EC50 (read off the curve)) is around 7 ng/mL.
Take B4: the “EC50 (read off the curve)” value is around 10 ng/mL.
Same read-out and setting: next, B5: around 10 ng/mL; B6: around 10 ng/mL; B7: around 10 ng/mL.
On the same count and under the same terms, next, B8: around 10 ng/mL; B9: around 10 ng/mL; B10: around 20 ng/mL.
Consider B11, for which the “EC50 (read off the curve)” value is around 10 ng/mL.
Same read-out and setting: the result for B12 reads around 10 ng/mL; that for B13, around 30 ng/mL.
On the same count and under the same terms, the result for B14 reads around 40 ng/mL; that for B15, around 40 ng/mL; that for B16, around 20 ng/mL.

A further assay shares this target. As to the kind of experiment: ELISA, LAIR1 ECD coated, mAb titrated, anti-rabbit HRP. As for the experimental part: as §1, §2
Consider B1, for which the concentration giving a half-maximal response (EC50) (commonly the concentration needed to bring the measured effect to its halfway point) was 0.02 nM.
Still for that read-out and setting: the result for B2 reads 0.1 nM; that for B3, 0.05 nM.
B4 registered an EC50 of 0.08 nM.
In the case of B17, the 50% effective concentration (EC50) came out at 4.21 nM.
Take B5: the EC50 came to 0.09 nM.
Molecule B6 gave a 50% effective concentration (EC50) of 0.08 nM.
For B7, it took 0.05 nM to reach a half-maximal effect (EC50).
As to B8, the midpoint of the response, the EC50, lay at 0.09 nM.
B9 had an EC50 of 0.07 nM.
For the molecule B10, the EC50 was 0.05 nM.
Consider B11, for which the response was half-maximal at 0.1 nM (EC50).
Consider B12, for which the concentration for a half-maximal effect (EC50) worked out at 0.09 nM.
The molecule B13 came in with an EC50 of 0.23 nM.
The molecule B14 yielded a concentration for a half-maximal effect (EC50) of 0.28 nM.
The same measure, in the same setting: next, B15: 0.25 nM; B16: 0.16 nM.

Another assay has as its target T2, LAIR1 on LAIR1 reporter cells. As to the kind of experiment: cell-based or functional assay.
Consider B2, for which the “GFP+% of LAIR1 reporter cells, collagen I coated, soluble Ab” value turned out to be 1.1%.
Turning to B11, the “GFP+% of LAIR1 reporter cells, collagen I coated, soluble Ab” value is 6.5%.

The record behind these values is patent US20190338026A1 (University of Texas, published 2019).
